Patent US20180319872A1 (UNIVERSITY OF MARYLAND BALTIMORE, published 2018)

B1: VHH peptide monomer E3 (VHH)
VHH: QVQLVESGGGLVQTGGSLRLSCASSGSIAGFETVTWSRQAPGKSLQWVASMTKTNNEIYSDSVKGRFIISRDNAKNTVYLQMNSLKPEDTGVYFCKGPELRGQGIQVTVSS
notes: also called VHH E3
B2: VHH peptide monomer 5D (VHH)
VHH: QVQLVESGGGLVQPGGSLRLSCEASGFTLDYYGIGWFRQPPGKEREAVSYISASARTILYADSVKGRFTISRDNAKNAVYLQMNSLKREDTAVYYCARRRFSASSVNRWLADDYDVWGRGTQVAVSS
B3: VHH peptide monomer AH3 (VHH)
VHH: QVQLVETGGLVQPGGSLRLSCAASGFTLDYSSIGWFRQAPGKEREGVSCISSSGDSTKYADSVKGRFTTSRDNAKNTVYLQMNSLKPDDTAVYYCAAFRATMCGVFPLSPYGKDDWGKGTLVTVSS
notes: also called VHH AH3
B4: ABAB binding agent (AH3/5D/AA6/E3, tetra-specific tetrameric VHH) (designed binder)
chain: QVQLVETGGGLVQPGGSLRLSCAASGFTLDYSSIGWFRQAPGKEREGVSCISSSGDSTKYADSVKGRFTTSRDNAKNTVYLQMNSLKPDDTAVYYCAAFRATMCGVFPLSPYGKDDWGKGTLVTVSSGGGGSGGGGSGGGGSQVQLVESGGGLVQPGGSLRLSCEASGFTLDYYGIGWFRQPPGKEREAVSYISASARTILYADSVKGRFTISRDNAKNAVYLQMNSLKREDTAVYYCARRRFSASSVNRWLADDYDVWGRGTQVAVSSGGGSGGGSGGGSGGGSQLQLVETGGGLVQPGGSLRLSCAASGFTFSDYVMTWVRQAPGKGPEWIATINTDGSTMRDDSTKGRFTISRDNAKNTLYLQMTSLKPEDTALYYCARGRVISASAIRGAVRGPGTQVTVSSGGGGSGGGGSGGGGSQVQLVESGGGLVQTGGSLRLSCASSGSIAGFETVTWSRQAPGKSLQWVASMTKTNNEIYSDSVKGRFIISRDNAKNTVYLQMNSLKPEDTGVYFCKGPELRGQGIQVTVSS
notes: also called r-ABAB; recombinant ABAB

How the values were obtained:
[1] = biological target: T1, Clostridium difficile toxin B (TcdB) (Clostridium difficile, UniProt P18177 2-2366); experiment: ELISA on plates coated with 1 ug/ml TcdB (TxB), OD450
T1 construct: also called TxB
T1 sequence (P18177 2-2366 limits assumed): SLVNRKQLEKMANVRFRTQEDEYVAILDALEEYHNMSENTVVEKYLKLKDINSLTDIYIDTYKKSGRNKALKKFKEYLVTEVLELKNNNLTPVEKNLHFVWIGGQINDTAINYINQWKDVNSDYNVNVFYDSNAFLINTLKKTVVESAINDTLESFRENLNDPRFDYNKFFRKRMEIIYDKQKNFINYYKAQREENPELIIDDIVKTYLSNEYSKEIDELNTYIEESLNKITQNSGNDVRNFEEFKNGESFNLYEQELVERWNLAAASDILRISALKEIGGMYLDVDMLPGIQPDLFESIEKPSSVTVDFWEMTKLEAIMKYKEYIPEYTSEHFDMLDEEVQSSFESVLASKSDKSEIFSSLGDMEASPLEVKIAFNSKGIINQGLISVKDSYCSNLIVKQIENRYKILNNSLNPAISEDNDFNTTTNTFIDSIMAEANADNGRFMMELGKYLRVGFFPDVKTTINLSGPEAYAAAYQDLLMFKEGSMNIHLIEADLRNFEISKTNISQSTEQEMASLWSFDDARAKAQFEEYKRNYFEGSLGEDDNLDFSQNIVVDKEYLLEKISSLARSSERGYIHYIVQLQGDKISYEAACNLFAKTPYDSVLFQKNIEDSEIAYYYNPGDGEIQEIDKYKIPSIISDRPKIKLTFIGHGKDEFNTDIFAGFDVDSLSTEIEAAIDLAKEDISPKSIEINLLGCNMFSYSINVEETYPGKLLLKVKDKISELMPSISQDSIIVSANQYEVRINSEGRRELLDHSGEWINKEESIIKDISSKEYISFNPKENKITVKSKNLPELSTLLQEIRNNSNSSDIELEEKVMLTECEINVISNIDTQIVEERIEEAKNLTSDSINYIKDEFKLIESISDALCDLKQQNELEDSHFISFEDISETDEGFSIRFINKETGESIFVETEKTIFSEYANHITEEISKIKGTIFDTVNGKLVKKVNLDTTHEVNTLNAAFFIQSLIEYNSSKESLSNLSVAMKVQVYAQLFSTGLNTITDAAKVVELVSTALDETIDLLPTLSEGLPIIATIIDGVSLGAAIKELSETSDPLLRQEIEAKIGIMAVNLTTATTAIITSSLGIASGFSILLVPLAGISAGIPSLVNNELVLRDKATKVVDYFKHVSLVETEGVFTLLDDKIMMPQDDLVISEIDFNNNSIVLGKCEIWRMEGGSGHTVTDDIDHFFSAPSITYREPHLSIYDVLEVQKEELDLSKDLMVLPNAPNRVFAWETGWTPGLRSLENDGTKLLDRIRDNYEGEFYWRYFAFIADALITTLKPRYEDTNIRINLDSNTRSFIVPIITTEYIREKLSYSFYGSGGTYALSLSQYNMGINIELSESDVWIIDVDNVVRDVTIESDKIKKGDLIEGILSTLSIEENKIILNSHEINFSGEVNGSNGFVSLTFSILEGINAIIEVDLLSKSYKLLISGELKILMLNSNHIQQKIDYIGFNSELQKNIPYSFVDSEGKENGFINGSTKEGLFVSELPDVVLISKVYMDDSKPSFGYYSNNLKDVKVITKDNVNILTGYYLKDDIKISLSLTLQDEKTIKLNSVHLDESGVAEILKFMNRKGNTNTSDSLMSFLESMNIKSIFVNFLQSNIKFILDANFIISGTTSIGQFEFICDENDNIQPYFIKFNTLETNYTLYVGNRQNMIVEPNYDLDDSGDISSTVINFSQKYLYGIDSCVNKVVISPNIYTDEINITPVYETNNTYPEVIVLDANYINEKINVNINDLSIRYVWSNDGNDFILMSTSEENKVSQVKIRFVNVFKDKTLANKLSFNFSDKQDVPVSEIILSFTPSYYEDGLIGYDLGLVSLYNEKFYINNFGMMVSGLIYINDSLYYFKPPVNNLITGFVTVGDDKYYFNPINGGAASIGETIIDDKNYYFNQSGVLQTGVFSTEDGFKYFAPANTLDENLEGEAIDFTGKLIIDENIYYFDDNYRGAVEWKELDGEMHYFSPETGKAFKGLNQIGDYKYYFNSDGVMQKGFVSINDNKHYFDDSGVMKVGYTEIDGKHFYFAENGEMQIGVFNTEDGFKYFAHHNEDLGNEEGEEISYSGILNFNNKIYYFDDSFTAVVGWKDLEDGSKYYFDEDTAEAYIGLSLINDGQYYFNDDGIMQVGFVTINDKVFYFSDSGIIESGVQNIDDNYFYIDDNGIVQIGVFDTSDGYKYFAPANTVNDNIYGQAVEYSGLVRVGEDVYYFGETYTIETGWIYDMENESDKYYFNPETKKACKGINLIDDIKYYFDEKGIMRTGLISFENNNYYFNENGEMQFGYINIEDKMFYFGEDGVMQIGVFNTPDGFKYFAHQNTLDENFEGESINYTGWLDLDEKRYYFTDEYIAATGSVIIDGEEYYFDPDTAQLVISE

[2] = biological target: T1, Clostridium difficile toxin B (TcdB); experiment: binding kinetics, method not stated
[3] = biological target: T2, Clostridium difficile toxin A (TcdA) (Clostridium difficile, UniProt P16154 1-2710); experiment: binding kinetics, method not stated
T2 construct: also called TxA; rTcdA
T2 sequence (P16154 whole entry): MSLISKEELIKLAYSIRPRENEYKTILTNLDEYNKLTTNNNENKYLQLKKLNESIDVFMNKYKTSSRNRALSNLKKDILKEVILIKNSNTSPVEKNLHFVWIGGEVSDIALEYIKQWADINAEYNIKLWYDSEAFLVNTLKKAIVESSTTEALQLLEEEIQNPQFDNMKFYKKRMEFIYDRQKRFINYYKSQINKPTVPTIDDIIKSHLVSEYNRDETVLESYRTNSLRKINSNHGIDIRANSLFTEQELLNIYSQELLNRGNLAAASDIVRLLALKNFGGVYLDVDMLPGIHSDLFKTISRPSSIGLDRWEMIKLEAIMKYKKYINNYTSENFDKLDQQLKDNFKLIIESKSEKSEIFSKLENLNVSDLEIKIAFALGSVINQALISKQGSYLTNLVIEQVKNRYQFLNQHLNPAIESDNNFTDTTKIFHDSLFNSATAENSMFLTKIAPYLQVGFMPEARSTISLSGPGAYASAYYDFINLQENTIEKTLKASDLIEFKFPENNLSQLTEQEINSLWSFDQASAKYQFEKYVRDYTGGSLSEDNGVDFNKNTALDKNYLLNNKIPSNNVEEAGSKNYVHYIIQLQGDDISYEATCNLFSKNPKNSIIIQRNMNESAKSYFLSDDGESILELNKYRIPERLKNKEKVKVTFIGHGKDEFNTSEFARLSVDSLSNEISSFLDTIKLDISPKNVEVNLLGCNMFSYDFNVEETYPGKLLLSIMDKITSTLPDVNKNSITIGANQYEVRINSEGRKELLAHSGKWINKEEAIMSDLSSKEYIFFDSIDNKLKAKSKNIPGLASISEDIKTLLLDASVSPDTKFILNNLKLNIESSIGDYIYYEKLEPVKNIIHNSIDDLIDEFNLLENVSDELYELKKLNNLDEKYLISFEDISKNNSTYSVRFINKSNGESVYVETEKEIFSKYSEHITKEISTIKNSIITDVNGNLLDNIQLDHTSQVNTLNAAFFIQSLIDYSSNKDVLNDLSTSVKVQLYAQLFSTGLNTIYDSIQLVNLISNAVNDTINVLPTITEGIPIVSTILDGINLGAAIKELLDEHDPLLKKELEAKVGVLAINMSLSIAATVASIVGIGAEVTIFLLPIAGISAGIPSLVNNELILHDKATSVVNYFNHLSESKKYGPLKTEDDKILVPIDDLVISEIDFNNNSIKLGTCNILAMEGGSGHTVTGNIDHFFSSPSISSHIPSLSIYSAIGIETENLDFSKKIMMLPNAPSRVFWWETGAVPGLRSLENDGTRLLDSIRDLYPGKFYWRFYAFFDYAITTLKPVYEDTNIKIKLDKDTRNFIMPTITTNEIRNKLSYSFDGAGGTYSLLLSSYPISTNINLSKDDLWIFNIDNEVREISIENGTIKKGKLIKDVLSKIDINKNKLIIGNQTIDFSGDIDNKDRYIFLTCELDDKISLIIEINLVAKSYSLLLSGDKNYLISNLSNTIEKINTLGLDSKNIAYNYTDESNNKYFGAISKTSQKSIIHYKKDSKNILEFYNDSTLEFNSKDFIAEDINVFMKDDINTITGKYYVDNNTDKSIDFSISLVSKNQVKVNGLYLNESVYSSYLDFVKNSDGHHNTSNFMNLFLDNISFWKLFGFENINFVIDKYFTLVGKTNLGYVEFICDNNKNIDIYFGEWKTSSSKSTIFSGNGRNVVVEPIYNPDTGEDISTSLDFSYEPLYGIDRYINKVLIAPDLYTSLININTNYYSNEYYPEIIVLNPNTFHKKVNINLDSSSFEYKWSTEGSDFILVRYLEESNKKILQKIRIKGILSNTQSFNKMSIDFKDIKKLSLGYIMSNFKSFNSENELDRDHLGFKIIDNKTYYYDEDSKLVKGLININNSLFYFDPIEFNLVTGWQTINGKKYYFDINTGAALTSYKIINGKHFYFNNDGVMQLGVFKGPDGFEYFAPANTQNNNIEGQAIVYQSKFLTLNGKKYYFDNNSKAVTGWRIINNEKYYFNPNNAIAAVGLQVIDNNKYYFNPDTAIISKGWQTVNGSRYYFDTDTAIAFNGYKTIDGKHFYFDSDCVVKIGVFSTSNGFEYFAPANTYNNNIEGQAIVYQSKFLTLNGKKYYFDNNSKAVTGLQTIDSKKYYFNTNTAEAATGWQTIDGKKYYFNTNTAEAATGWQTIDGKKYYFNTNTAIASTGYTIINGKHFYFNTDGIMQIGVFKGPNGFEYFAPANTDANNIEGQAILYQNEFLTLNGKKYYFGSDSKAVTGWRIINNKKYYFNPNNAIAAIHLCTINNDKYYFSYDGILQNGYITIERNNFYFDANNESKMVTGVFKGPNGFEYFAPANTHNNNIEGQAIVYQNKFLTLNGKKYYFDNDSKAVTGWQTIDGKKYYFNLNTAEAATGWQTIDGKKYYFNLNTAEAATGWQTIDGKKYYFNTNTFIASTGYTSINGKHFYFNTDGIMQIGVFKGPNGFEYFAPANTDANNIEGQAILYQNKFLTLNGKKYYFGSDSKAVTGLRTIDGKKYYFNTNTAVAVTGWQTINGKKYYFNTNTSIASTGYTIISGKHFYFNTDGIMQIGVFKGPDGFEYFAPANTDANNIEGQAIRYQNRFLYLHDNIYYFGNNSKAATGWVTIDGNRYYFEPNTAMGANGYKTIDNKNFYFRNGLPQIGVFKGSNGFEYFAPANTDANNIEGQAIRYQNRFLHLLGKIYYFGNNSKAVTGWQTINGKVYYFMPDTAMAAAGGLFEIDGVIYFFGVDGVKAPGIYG

| Binder | EC50 (read off the curve) [1] [µg/mL] | Kd [2] [nM] | koff [2] [s⁻¹] | kon [2] [M⁻¹ s⁻¹] | Kd [3] [nM] | koff [3] [s⁻¹] | kon [3] [M⁻¹ s⁻¹] |
| --- | --- | --- | --- | --- | --- | --- | --- |
| B1 | ~0.02 | 0.03 | 9.4e-05 | 2.95e+06 |  |  |  |
| B2 |  | 0.65 | 0.000994 | 1.52e+06 |  |  |  |
| B3 |  |  |  |  | 32 | 0.00071 | 22000 |
| B4 |  | 0.002 | 3.57e-06 | 1.79e+06 |  |  |  |
